In PMC11891296, “Mechanical forces and ligand binding modulate Pseudomonas aeruginosa PilY1 mechanosensitive protein” (Life Science Alliance, 2025):

Target: T1, recombinant αVβ5 human integrin extracellular domains (human, UniProt P06756 31-992; P18084 24-719)
T1 construct: integrin alpha-V, human, extracellular domain; integrin beta-5, human, extracellular domain; also called integrin αVβ5 heterodimer; source: bought: R&D Systems
Test: single-molecule magnetic tweezers; PilY1 construct tethered between HaloTag-ligand glass and streptavidin-coated superparamagnetic bead, held at constant low force (5-6 pN, below 7 pN) where I1 and I2 fold and unfold; 200 nM integrin added in binding buffer (10 mM Hepes pH 7.2, 150 mM NaCl, 10 mM ascorbic acid, 2 mM CaCl2, 1 mM MgCl2, 1 mM MnCl2); binding read as shortening of the unfolded extension of I2
Conditions: both partners purified

T1 sequence (P06756 31-992, chain 1 of 2): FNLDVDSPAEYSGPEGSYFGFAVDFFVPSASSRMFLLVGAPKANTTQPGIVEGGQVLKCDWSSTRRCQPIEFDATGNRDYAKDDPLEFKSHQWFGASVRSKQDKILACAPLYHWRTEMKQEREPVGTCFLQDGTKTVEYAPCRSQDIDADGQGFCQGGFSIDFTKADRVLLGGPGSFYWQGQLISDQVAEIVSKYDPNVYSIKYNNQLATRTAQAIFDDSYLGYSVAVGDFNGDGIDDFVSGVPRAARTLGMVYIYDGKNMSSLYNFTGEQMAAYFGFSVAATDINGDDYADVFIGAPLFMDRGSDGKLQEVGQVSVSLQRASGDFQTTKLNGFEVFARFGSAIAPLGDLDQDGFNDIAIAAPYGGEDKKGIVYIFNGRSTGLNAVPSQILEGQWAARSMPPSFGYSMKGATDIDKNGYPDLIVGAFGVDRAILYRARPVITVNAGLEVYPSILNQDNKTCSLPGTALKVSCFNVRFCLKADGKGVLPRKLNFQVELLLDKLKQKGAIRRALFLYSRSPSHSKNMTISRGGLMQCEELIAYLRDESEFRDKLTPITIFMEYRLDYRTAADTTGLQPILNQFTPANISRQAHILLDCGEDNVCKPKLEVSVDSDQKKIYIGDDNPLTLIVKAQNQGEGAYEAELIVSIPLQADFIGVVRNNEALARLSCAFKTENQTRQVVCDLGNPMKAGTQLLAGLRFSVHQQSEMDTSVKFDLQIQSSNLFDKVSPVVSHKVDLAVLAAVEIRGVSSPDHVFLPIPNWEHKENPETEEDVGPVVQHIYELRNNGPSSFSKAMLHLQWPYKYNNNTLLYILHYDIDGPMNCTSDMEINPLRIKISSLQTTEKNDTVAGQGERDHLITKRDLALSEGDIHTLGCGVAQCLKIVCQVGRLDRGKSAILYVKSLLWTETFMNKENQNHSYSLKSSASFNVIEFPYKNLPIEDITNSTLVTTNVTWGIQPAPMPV
T1 sequence (P18084 24-719, chain 2 of 2): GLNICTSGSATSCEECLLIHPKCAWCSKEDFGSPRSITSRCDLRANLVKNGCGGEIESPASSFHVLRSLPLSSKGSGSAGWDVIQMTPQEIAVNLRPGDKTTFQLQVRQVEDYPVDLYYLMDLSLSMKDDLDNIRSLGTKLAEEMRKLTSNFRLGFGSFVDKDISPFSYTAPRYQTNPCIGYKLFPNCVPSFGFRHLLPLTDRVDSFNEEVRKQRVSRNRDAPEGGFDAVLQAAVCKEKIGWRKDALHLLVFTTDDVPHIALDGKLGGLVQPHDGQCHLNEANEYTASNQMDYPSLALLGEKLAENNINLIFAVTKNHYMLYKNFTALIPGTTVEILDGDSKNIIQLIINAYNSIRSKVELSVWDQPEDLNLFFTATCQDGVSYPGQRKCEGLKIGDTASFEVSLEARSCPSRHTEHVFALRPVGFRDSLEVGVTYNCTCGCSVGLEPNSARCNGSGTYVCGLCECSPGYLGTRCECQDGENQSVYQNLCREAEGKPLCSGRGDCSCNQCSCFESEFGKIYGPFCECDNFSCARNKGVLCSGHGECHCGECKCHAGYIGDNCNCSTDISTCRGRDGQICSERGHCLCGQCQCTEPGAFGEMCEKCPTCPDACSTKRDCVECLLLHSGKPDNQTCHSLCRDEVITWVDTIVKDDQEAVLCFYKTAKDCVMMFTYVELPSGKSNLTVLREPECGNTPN

B1: PilY1^501−1161 chimeric polyprotein (HaloTag-(I32)2-PilY1 residues 501-1161-(I32)2-HisTag-AviTag) (domain or fragment)
chain: ISSSLQEDDTGDKLTRFAYQTSFASDKNWAGDLTRYSLTTQDKATVQTKLWSAQSILDAMPNGGAGRKIMMAGSGTSGLKEFTWGSLSADQQRQLNRDPDRNDVADTKGQDRVAFLRGDRRKENSDNFRTRNSILGDIINSSPATVGKAQYLTYLAQPIEPSGNYSTFAEAQKTRAPRVYVGANDGMLHGFDTDGNETFAFIPSAVFEKLHKLTARGYQGGAHQFYVDGSPVVADAFFGGAWHTVLIGSLRAGGKGLFALDVTDPANIKLLWEIGVDQEPDLGYSFPKPTVARLHNGKWAVVTGNGYSSLNDKAALLIIDLETGAITRKLEVTGRTGVPNGLSSPRLADNNSDGVADYAYAGDLQGNLWRFDLIAGKVNQDDPFSRANDGPAVASSFRVSFGGQPLYSAVDSAGAAQAITAAPSLVRHPTRKGYIVIFGTGKYFENADARADTSRAQTLYGIWDQQTKGEAAGSTPRLTRGNLQQQTLDLQADSTFASTARTIRIASQNPVNWLNNDGSTKQSGWYLDFMVNGTLKGEMLIEDMIAIGQVVLLQTITPNDDPCADGASNWTYGLDPYTGGRTSFTVFDLARQGVVDSKSDYSYNKQNVAVSGTEQKGLGGLTLSTNEQGNPEVCSSGECLTVNPGPNTRGRQNWRPIEGKN
modifications: biotin on the AviTag
notes: gene optimized for expression in E. coli; The HisTag lies between the last I32 and the AviTag; also called PilY1 C-terminal section; source: E. coli BL21 Star, purified (HisPur Cobalt resin, Superdex 200 SEC), biotinylated in vitro; not shown: HaloTag, N-terminal, kept; 2x human titin I32 domain, N-terminal, kept; 2x human titin I32 domain, C-terminal, kept; AviTag (biotinylated), C-terminal, kept
binding result: binds
